First the molecules themselves.
T1: human Sortilin (SORT1), full-length untagged, expressed on cells (human, UniProt Q99523 78-831)
T1 construct: U251 cells expressing SORT1 endogenously (down-regulation and PGRN secretion assays); also called human SORT1
T1 sequence: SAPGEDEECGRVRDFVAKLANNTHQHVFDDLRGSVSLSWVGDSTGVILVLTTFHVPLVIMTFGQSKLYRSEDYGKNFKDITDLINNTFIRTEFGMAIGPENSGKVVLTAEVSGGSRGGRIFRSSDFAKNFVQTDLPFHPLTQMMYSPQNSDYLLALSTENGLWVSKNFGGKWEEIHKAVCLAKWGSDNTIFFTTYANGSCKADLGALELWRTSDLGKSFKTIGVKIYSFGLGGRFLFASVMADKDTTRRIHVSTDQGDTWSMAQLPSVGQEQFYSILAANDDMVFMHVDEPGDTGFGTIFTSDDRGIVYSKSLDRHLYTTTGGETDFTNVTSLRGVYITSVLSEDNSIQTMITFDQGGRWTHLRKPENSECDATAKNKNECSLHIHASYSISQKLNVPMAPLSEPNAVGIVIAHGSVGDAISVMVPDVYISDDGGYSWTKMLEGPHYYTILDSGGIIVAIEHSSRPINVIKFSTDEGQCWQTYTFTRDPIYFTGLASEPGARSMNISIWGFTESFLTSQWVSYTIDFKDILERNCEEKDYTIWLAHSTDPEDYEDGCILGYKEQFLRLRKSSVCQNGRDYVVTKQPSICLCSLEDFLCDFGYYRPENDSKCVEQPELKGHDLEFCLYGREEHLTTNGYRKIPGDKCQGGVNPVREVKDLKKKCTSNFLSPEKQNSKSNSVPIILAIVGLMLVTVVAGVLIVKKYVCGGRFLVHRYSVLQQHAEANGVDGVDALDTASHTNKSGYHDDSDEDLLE

T2: histidine-tagged human SORT1 (R&D Systems) (human, UniProt Q99523 78-755)
T2 construct: Bought recombinant protein; also called His-tagged human SORT1; not shown: histidine tag
T2 sequence: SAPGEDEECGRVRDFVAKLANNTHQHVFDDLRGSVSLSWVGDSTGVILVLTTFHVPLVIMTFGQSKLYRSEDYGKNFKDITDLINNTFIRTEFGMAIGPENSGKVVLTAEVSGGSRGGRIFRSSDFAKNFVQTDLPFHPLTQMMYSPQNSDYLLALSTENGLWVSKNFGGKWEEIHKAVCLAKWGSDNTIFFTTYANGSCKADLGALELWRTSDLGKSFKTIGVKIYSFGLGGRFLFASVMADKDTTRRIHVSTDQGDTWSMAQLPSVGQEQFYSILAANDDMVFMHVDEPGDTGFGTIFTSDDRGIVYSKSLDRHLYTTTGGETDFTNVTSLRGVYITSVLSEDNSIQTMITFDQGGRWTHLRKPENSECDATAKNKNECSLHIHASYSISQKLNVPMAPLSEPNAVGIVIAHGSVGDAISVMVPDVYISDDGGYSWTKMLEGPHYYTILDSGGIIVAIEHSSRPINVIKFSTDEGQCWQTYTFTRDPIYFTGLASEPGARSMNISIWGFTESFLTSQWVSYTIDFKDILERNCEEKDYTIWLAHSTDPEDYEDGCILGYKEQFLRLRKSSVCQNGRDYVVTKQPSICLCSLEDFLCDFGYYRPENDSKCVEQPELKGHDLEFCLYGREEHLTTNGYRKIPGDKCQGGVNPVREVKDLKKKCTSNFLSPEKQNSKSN

B1: S-60-1 (antibody, IgG1, V domains shown)
VH: QVQLQESGPGLVKPSETLSLTCAVSGYSISSVRYWGWIRQPPGKGLEWIGSIYHSGSTYYNPSLKSRVTISVDTSKNQFSLKLSSVTAADTAVYYCARQGSIKQGYYGMDVWGQGTTVTVSS
VL: not shown
notes: Tested on the huIgG1 (WT) backbone
B2: S-60-2 (antibody, IgG1, V domains shown)
VH: QVQLQESGPGLVKPSETLSLTCAVSGYSISSVRYWGWIRQPPGKGLEWIGAIYPSGSTYYNPSLKSRVTISVDTSKNQFSLKLSSVTAADTAVYYCARQGSIKQGYYGMDVWGQGTTVTVSS
VL: not shown
notes: as for B1
B3: S-60-15.16 [N33M] (antibody, human IgG1, kappa, L234A L235A, V domains shown)
VH: QVQLQESGPGLVKPSETLSLTCAVSGYSISSGYYWGWIRQPPGKGLEWIGTIYHSGSTYYNPSLKSRVTISVDTSKNQFSLKLSSVTAADTAVYYCARQGSIKQGYYGMDVWGQGTTVTVSS
VL: DIVMTQSPLSLPVTPGEPASISCRSSQSLLRSMGYNYLDWYLQKPGQSPQLLIYLGSNRASGVPDRFSGSGSGTDFTLKISRAEAEDVGVYYCMQQQEAPLTFGGGTKVEIKR
notes: huIgG1 LALAPS
B4: S-60-15.12 [N33F] (antibody, human IgG1, kappa, L234A L235A, V domains shown)
VH: QVQLQESGPGLVKPSETLSLTCAVSGYSISSGYYWGWIRQPPGKGLEWIGTIYHSGSTYYNPSLKSRVTISVDTSKNQFSLKLSSVTAADTAVYYCARQGSIKQGYYGMDVWGQGTTVTVSS
VL: DIVMTQSPLSLPVTPGEPASISCRSSQSLLRSFGYNYLDWYLQKPGQSPQLLIYLGSNRASGVPDRFSGSGSGTDFTLKISRAEAEDVGVYYCMQQQEAPLTFGGGTKVEIKR
notes: huIgG1 LALAPS
B5: S-60-15.17 [N33L] (antibody, human IgG1, kappa, L234A L235A, V domains shown)
VH: QVQLQESGPGLVKPSETLSLTCAVSGYSISSGYYWGWIRQPPGKGLEWIGTIYHSGSTYYNPSLKSRVTISVDTSKNQFSLKLSSVTAADTAVYYCARQGSIKQGYYGMDVWGQGTTVTVSS
VL: DIVMTQSPLSLPVTPGEPASISCRSSQSLLRSLGYNYLDWYLQKPGQSPQLLIYLGSNRASGVPDRFSGSGSGTDFTLKISRAEAEDVGVYYCMQQQEAPLTFGGGTKVEIKR
notes: huIgG1 LALAPS
B6: S-60-15.9 [N33Y] (antibody, human IgG1, kappa, L234A L235A, V domains shown)
VH: QVQLQESGPGLVKPSETLSLTCAVSGYSISSGYYWGWIRQPPGKGLEWIGTIYHSGSTYYNPSLKSRVTISVDTSKNQFSLKLSSVTAADTAVYYCARQGSIKQGYYGMDVWGQGTTVTVSS
VL: DIVMTQSPLSLPVTPGEPASISCRSSQSLLRSYGYNYLDWYLQKPGQSPQLLIYLGSNRASGVPDRFSGSGSGTDFTLKISRAEAEDVGVYYCMQQQEAPLTFGGGTKVEIKR
notes: huIgG1 LALAPS
B7: S-60-15.15 [N33A] (antibody, human IgG1, kappa, L234A L235A, V domains shown)
VH: QVQLQESGPGLVKPSETLSLTCAVSGYSISSGYYWGWIRQPPGKGLEWIGTIYHSGSTYYNPSLKSRVTISVDTSKNQFSLKLSSVTAADTAVYYCARQGSIKQGYYGMDVWGQGTTVTVSS
VL: DIVMTQSPLSLPVTPGEPASISCRSSQSLLRSAGYNYLDWYLQKPGQSPQLLIYLGSNRASGVPDRFSGSGSGTDFTLKISRAEAEDVGVYYCMQQQEAPLTFGGGTKVEIKR
notes: huIgG1 LALAPS
B8: S-60-15.10 [N33E] (antibody, human IgG1, kappa, L234A L235A, V domains shown)
VH: QVQLQESGPGLVKPSETLSLTCAVSGYSISSGYYWGWIRQPPGKGLEWIGTIYHSGSTYYNPSLKSRVTISVDTSKNQFSLKLSSVTAADTAVYYCARQGSIKQGYYGMDVWGQGTTVTVSS
VL: DIVMTQSPLSLPVTPGEPASISCRSSQSLLRSEGYNYLDWYLQKPGQSPQLLIYLGSNRASGVPDRFSGSGSGTDFTLKISRAEAEDVGVYYCMQQQEAPLTFGGGTKVEIKR
notes: huIgG1 LALAPS
B9: S-60-15.13 [N33I] (antibody, human IgG1, kappa, L234A L235A, V domains shown)
VH: QVQLQESGPGLVKPSETLSLTCAVSGYSISSGYYWGWIRQPPGKGLEWIGTIYHSGSTYYNPSLKSRVTISVDTSKNQFSLKLSSVTAADTAVYYCARQGSIKQGYYGMDVWGQGTTVTVSS
VL: DIVMTQSPLSLPVTPGEPASISCRSSQSLLRSIGYNYLDWYLQKPGQSPQLLIYLGSNRASGVPDRFSGSGSGTDFTLKISRAEAEDVGVYYCMQQQEAPLTFGGGTKVEIKR
notes: huIgG1 LALAPS
B10: S-60-15.11 [N33W] (antibody, human IgG1, kappa, L234A L235A, V domains shown)
VH: QVQLQESGPGLVKPSETLSLTCAVSGYSISSGYYWGWIRQPPGKGLEWIGTIYHSGSTYYNPSLKSRVTISVDTSKNQFSLKLSSVTAADTAVYYCARQGSIKQGYYGMDVWGQGTTVTVSS
VL: DIVMTQSPLSLPVTPGEPASISCRSSQSLLRSWGYNYLDWYLQKPGQSPQLLIYLGSNRASGVPDRFSGSGSGTDFTLKISRAEAEDVGVYYCMQQQEAPLTFGGGTKVEIKR
notes: huIgG1 LALAPS
B11: S-60-15.14 [N33V] (antibody, human IgG1, kappa, L234A L235A, V domains shown)
VH: QVQLQESGPGLVKPSETLSLTCAVSGYSISSGYYWGWIRQPPGKGLEWIGTIYHSGSTYYNPSLKSRVTISVDTSKNQFSLKLSSVTAADTAVYYCARQGSIKQGYYGMDVWGQGTTVTVSS
VL: DIVMTQSPLSLPVTPGEPASISCRSSQSLLRSVGYNYLDWYLQKPGQSPQLLIYLGSNRASGVPDRFSGSGSGTDFTLKISRAEAEDVGVYYCMQQQEAPLTFGGGTKVEIKR
notes: huIgG1 LALAPS

For the first experiment, the target named is T1, human Sortilin (SORT1), full-length …. The experiment is described as follows: FACS on HEK293T cells expressing human SORT1, huIgG1. Here is the method: For the binding assay, stable HEK293T cells expressing human SORT1 were harvested by trypsinization, washed in PBS, counted and plated on 96-well u-bottom plates at 1×10⁵ cells/well. The plates were spun at 1,400 rpm for 3 minutes and primary anti-SORT1 or control antibodies were added in FACS buffer (PBS+2 FBS) and incubated on ice for one hour. Cells were subsequently centrifuged as before and washed thrice with FACS buffer. Cells were then incubated with anti-human APC conjugated secondary antibody (BD Biosciences) in FACS buffer for 30 minutes on ice. Cells were again washed three times with FACS buffer and analyzed on a BD FACS Canto or an Intellicyt Flow Cytometer. Binding was measured as median fluorescent intensity (MFI) in the […] channel of the GFP positive cell population.
All antibodies were tested on the huIgG1 backbone.
B1: the Kd (usually the free concentration of one partner at which half of the binding sites on the other are occupied at equilibrium, for simple one-to-one binding) is 7.22 nM.

As for B2, binding was put at a Kd of 11 nM.

The target of the next experiment is T2, histidine-tagged human SORT1 (R&D …). The experiment is described as follows: BLI (Octet RED96), antibody captured on anti-human IgG Fc sensor, 20 nM His-tagged human SORT1, 1:1 fit. Here is the method:
The G1m3 or G1m(f) allotype with L234A/L235A/P331S (“LALAPS” motif) mutations was used as a background (Jefferis R and Lefranc M-P, Mabs, 2009 July-August; 1(4): 332-338). […] Bio-layer interferometry (BLI) data was collected at a rate of 5 Hz at 25° C. on a Pall ForteBio Octet RED96 instrument. Data analysis was performed using ForteBio Data Analysis Software, version 9.0. Standard kinetic buffer (PBS, 0.1 BSA, 0.02 Tween-20, pH 7.2) was used for the assay and for preparing reagents. For all assays, sensor tips were equilibrated in buffer prior to analysis.
Twenty nM histidine-tagged human SORT1 (R&D Systems, Minneapolis, Minn.) was then bound to the captured anti-SORT1 surface (200 s association time, 1200 s dissociation time). […] Full, local fitting using a 1:1 interaction model was applied to extract association and dissociation rate constants (kₐ and kd, respectively) for each N33 mutant. Affinity constants (KD) were calculated from the ratio […]. Different amino acid substitutions were made at N33 and tested for binding to SORT1 in an off-rate screen (under non-stress conditions) as shown in Table 9.
A general note: Biolayer interferometry detects binding as a change in optical thickness at a sensor tip.
Consider B3, for which the Kd was 0.85 nM; the koff (in general, the rate constant with which the complex falls apart) came to 0.000423 s⁻¹; the on-rate (kon) (usually a measure of how fast the partners come together) turned out to be 495000 M⁻¹ s⁻¹.

B4: the affinity, expressed as Kd, was 2.91 nM; the koff came to 0.000816 s⁻¹; the on-rate constant (kon) worked out at 280000 M⁻¹ s⁻¹.

Consider B5, for which binding was characterised by a dissociation constant (Kd) of 1.03 nM, the koff came out at 0.000425 s⁻¹ and the kon is 412000 M⁻¹ s⁻¹.

For the molecule B6, binding was characterised by a dissociation constant (Kd) of 1.28 nM, the koff turned out to be 0.000675 s⁻¹ and the kon was determined as 511000 M⁻¹ s⁻¹.

B7 showed a Kd of 0.625 nM, a koff of 0.000315 s⁻¹ and a kon of 493000 M⁻¹ s⁻¹.

As to B8, the Kd worked out at 2.01 nM, the koff is ~0.00136 s⁻¹ and the kon came out at 676000 M⁻¹ s⁻¹.

With B9, the affinity, expressed as Kd, was 0.46 nM; the off-rate (koff) amounted to 0.000228 s⁻¹; the kon was 491000 M⁻¹ s⁻¹.

In the case of B10, binding was characterised by a dissociation constant (Kd) of 0.96 nM, the koff was found to be 0.000579 s⁻¹ and the on-rate (kon) amounted to 601000 M⁻¹ s⁻¹.

As to B11, the Kd was 0.69 nM, the koff is 0.000306 s⁻¹ and the kon is 445000 M⁻¹ s⁻¹.

The target of the next experiment is T1, human Sortilin (SORT1), full-length …. Nature of the experiment: cell-based or functional assay.
Consider B1, for which the “DR EC50 (M): down-regulation of cell surface SORT1, U251 cells, FACS” value was found to be 2.73e-10 M and the “DR at 0.6 nM antibody (IgG): percent SORT1 downregulation, U251 cells” value came out at 50.4%.

As for B2, the “DR EC50 (M): down-regulation of cell surface SORT1, U251 cells, FACS” value came out at 4.2e-10 M and the “DR at 0.6 nM antibody (IgG): percent SORT1 downregulation, U251 cells” value came to 40.3%.
